Results on three molecules are retold here after patent publication US7419799 (GENETECH, dated 2008).

A value given as a limit tells only on which side of the number the result lay.

Series [1] concerns the molecule itself. The series is described as follows: BIAcore, homotypic interaction of His-tagged PRO20080. How it is done:
Lastly, a BIAcore® assay was performed to determine if a His-tagged PRO20080 would associate with itself. The association rate can be determined by any method in which formation of the complex may be observed as a function of time. In the BIAcore® analysis, in which one measures the association of the protein to an protein that has been immobilized on a biosensor surface (reviewed by Rich & Myszka, Curr. Opin. Biotechnol. 11:54-61 (2000)).

The target of series [2] is T1, SHP2 (human, UniProt Q06124 2-593).
T1 sequence (looked up): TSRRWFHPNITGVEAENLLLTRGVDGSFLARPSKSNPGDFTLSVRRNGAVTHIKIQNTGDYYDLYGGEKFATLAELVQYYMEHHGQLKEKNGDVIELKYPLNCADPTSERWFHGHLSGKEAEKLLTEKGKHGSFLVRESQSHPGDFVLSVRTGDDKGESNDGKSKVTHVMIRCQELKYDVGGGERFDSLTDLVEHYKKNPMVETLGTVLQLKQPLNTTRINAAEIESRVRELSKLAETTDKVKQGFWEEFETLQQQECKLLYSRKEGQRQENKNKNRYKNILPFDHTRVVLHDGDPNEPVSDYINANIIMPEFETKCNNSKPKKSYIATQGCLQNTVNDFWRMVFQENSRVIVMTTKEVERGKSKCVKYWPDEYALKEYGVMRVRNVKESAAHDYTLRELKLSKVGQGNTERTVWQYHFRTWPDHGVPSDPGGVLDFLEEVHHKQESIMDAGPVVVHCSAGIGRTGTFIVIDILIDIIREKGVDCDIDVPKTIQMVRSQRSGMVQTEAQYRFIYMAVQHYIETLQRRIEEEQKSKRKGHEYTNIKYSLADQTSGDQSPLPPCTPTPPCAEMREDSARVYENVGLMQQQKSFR
The series is described as follows: co-immunoprecipitation from isolated human CD4+ T cells (untreated), Western blot. A general note: Immunoblotting shows a protein as a band on a membrane.

In series [3] the target is T2, SHP1 (human, UniProt P29350 1-595). Described as above.
Series [4] deals with T1, SHP2. As to the kind of experiment: co-immunoprecipitation from isolated human CD4+ T cells (CD3 and PRO20080 cross-linked), Western blot.
The target of series [5] is T2, SHP1. The series is described as above.

T2 sequence (P29350 whole entry): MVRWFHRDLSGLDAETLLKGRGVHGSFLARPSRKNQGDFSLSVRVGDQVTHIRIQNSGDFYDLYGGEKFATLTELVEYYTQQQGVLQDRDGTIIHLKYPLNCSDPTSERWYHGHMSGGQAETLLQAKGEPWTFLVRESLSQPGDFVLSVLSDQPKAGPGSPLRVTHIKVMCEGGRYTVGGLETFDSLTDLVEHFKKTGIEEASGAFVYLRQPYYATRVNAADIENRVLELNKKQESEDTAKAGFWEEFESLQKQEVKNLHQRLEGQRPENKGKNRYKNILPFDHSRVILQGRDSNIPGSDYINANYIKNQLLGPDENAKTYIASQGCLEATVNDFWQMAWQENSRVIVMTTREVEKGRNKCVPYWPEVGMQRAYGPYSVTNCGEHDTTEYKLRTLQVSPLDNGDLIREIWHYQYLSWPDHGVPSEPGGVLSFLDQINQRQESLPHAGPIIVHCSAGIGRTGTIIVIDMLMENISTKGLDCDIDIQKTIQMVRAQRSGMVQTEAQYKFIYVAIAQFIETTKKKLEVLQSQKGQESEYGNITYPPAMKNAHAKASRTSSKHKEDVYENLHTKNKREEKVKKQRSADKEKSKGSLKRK

B1: His-tagged PRO20080 (receptor)
chain: QSSLTPLMVNGILGESVTLPLEFPAGEKVNFITWLFNETSLAFIVPHETKSPEIHVTNPKQGKRLNFTQSYSLQLSNLKMEDTGSYRAQISTKTSAKLSSYTLRILRQLRNIQVTNHSQLFQNMTCELHLTCSVEDADDNVSFRWEALGNTLSSQPNLTVSWDPRISSEQDYTCIAENAVSNLSFSVSAQKLCEDVKIQYTDTKM
notes: In the BIAcore assay the same protein served as both the immobilized and the soluble partner; not shown: His tag
As a reminder, the Kd is the equilibrium constant for the complex coming apart. With B1, the Kd in series [1] was > 100 µM.

B2: wild type PRO20080 (full-length, expressed in cells) (receptor)
chain: FGPGNVVSQSSLTPLMVNGILGESVTLPLEFPAGEKVNFITWLFNETSLAFIVPHETKSPEIHVTNPKQGKRLNFTQSYSLQLSNLKMEDTGSYRAQISTKTSAKLSSYTLRILRQLRNIQVTNHSQLFQNMTCELHLTCSVEDADDNVSFRWEALGNTLSSQPNLTVSWDPRISSEQDYTCIAENAVSNLSFSVSAQKLCEDVKIQYTDTKMILFMVSGICIVFGFIILLLLVLRKRRDSLSLSTQRTQGPAESARNLEYVSVSPTNNTVYASVTHSNRETEIWTPRENDTITIYSTINHSKESKPTFSRATALDNVV
notes: also called PRO20080 receptor
Consider B2, for which the binding result with SHP2 [2] and with SHP1 [3] was “no binding” each time.

B3: phosphorylated PRO20080 (receptor)
chain: B2 chain
modifications: tyrosine-phosphorylated (detected with anti-phosphotyrosine antibody; sites not stated)
notes: The phosphorylated residues are not identified; also called PRO20080 in pervanadate treated cells; PRO20080 after CD3 and PRO20080 cross linking
B3: the binding result with SHP2 [4] and with SHP1 [5] was “no binding” in each case.
